Assay results reported in US20220227809A1.
Ends that are not written are not given here.

B1: norovirus-binding peptide of SEQ ID NO: 263 (peptide)
peptide: ANYRWSRSIK
modifications: also: biotinylated via PEG3 (AEEEA)-Trp spacer, attachment site and resin-derived C-terminal Lys or Cys not given here
B2: norovirus-binding peptide of SEQ ID NO: 302 (peptide)
peptide: VWWGRRISRF
modifications: also: biotinylated via PEG3 (AEEEA)-Trp spacer, attachment site and resin-derived C-terminal Lys or Cys not given here
B3: norovirus-binding peptide of SEQ ID NO: 103 (peptide)
peptide: RFLVPVVKVM
modifications: also: biotinylated via PEG3 (AEEEA)-Trp spacer, attachment site and resin-derived C-terminal Lys or Cys not given here
B4: norovirus-binding peptide of SEQ ID NO: 283 (peptide)
peptide: RSMSLHVSMT
modifications: also: biotinylated via PEG3 (AEEEA)-Trp spacer, attachment site and resin-derived C-terminal Lys or Cys not given here
B5: norovirus-binding peptide of SEQ ID NO: 167 (peptide)
peptide: FVWRRRAGLY
modifications: also: biotinylated via PEG3 (AEEEA)-Trp spacer, attachment site and resin-derived C-terminal Lys or Cys not given here
B6: norovirus-binding peptide of SEQ ID NO: 288 (peptide)
peptide: CKARSARGVS
modifications: also: biotinylated via PEG3 (AEEEA)-Trp spacer, attachment site and resin-derived C-terminal Lys or Cys not given here
B7: norovirus-binding peptide of SEQ ID NO: 205 (peptide)
peptide: FVWSRRTGLY
modifications: also: biotinylated via PEG3 (AEEEA)-Trp spacer, attachment site and resin-derived C-terminal Lys or Cys not given here

Columns and labels:
[1] = biological target: norovirus GII.3 TCH strain virus-like particle (VLP) (norovirus GII.3 TCH strain); assay: BLI (BLItz), biotinylated peptide on SA chip, VLP in solution
[2] = biological target: norovirus GII.17 Saitama strain virus-like particle (VLP) (norovirus GII.17 Saitama strain); assay: as above

Binder	Kd [1] [nM]	koff [1] [s⁻¹]	kon [1] [M⁻¹ s⁻¹]	Kd [2] [nM]	koff [2] [s⁻¹]	kon [2] [M⁻¹ s⁻¹]
B1	57.5	0.049	851000	–	–	–
B2	–	–	–	28.4	0.0648	2.28e+06
B3	8.07	0.017	2.1e+06	8.13	0.0112	1.38e+06
B4	0.909	0.00715	7.86e+06	1.39	0.00138	994000
B5	1.39	0.00435	3.14e+06	0.696	0.00111	1.59e+06
B6	6.86	0.0143	2.09e+06	12	0.00747	620000
B7	31.6	0.0325	1.03e+06	109	0.0184	169000
